The results in this text go back to paper PMC3470943, “Identification of BACE2 as an avid ß-amyloid-degrading protease” (Molecular Neurodegeneration, 2012).

For data set [1], the system named is pre-formed fibrils of Aß42. As to the kind of experiment: Thioflavin T fluorescence of pre-formed Aß42 fibrils incubated with BACE2. The settings on record: BACE2 10 nM, 37°C, up to 3 d / 5 d (legend Figure 2D), 3 replicates. It counts as biochemical. As to the method: Figure 2 BACE2 degrades Aß in vitro. A, Percent Aß remaining following incubation with different concentrations of recombinant BACE2 for various lengths of time. Data are mean ± SEM of 4 replicates, normalized to protease-free controls. B, Comparison the relative Aß-degrading ability of recombinant BACE2 vs. BACE1. Note that 24 h incubation with BACE1 was required to achieve approximately the same extent of degradation as effected by BACE2 in 10 min. Data are mean ± SEM of 3 replicates, normalized to protease-free controls. C, BACE2 activity is pH dependent. Percent Aß degradation catalyzed by equivalent amounts of BACE2 at different pH values. Data are mean ± SEM of 4 replicates. […] Data are mean ± SEM of 3 replicates.
Individual AßDPs can be categorized in terms of their ability or inability to degrade fibrillar forms of Aß. Many well-established AßDPs, such as IDE and NEP, avidly degrade monomeric Aß but cannot degrade fibrillar forms and are therefore categorized as pure peptidases. Others, such as plasmin, degrade Aß fibrils and thus can also be categorized as fibrilases.

In data set [2] the test system is Aß (fluorescent substrate FAβB). The data set is described as follows: Fluorescence polarization-based Aß degradation assay. It counts as biochemical. The settings on record: 37°C. As to the method: The kinetics of Aβ40 and Aβ42 degradation by BACE2 were determined using freshly prepared, monomeric Aβ peptides separated from aggregated species by size-exclusion chromatography and characterized as described. Aβ peptides were diluted in neutral Dilution Buffer (20 mM Tris, pH 8.0 supplemented with 0.1% BSA) and reactions were initiated by transfer into 20 times more volume of Assay Buffer supplemented with purified recombinant BACE2 (R&D Systems, nominal concentration 1 or 5 nM) or, as a control for non-specific loss of Aβ, the latter buffer lacking BACE2. Where required, reactions were terminated by supplementation with protease inhibitor cocktail and adjustment to neutral pH. For ELISA-based experiments, Aβ42 and Aβ40 were quantified using the sandwich ELISAs described above. […] For determination of the pH dependence of Aβ degradation, experiments were carried same as described above, using Assay Buffer at different pH values (3.0, 3.5, 4.0, 4.5, 5.0, 5.5). The reactions were stopped at 10 min and the remaining 200nM of Aβ was determined using a well-characterized fluorescence polarization-based activity Aß degradation assay, as described. […] The degree of Aβ hydrolysis was immediately determined using a polarization-based Aß degradation assay. […]
Background: In fluorescence polarisation assays a small probe gives low polarisation when free and higher when bound to something large.

Data set [3] deals with Aß40 levels produced by CHO cells co-transfected with human APP-AP. The data set is described as follows: Functional cDNA screen for Aß-lowering proteases, co-transfection with APP-AP. It counts as cell-based, CHO cells (rodent cell line). The settings on record: protease cDNA 100 ng/well co-transfected with APP-AP 60 ng/well; 24 h conditioned medium; normalized to intra-plate controls; quadruplicate. As to the method:
A library of 352 full-length, sequence verified, human cDNAs encoding diverse members of all protease classes was purchase from a commercial source (OriGene Technologies, Inc.) in 96-well format (100 ng/well). For negative and positive controls, a subset of blank wells on each plate were supplemented with empty vector or a construct expressing a well-established AßDP, human ECE1b, respectively (100 ng/well). As a source of human Aß and also as a transfection control, each well was cotransfected with a hybrid construct, APP-AP (60 ng/well), comprised of a vector expressing wild-type human APP fused at its N-terminus with alkaline phosphatase (AP). Additional blank wells were left untreated for cell-free background controls. […]
Following heat treatment to inactivate endogenous phosphatases (65°C for 15 min) present in the media, conditioned media (30 μL/well) was added to 96-well plates containing AP substrate, 4-nitrophenylphosphate (170 μL/well, 2 mg/mL), dissolved in AP buffer (1 M diethanolamine, 0.5 mM MgCl2, 10 mM L-homoarginine, pH 9.8). Plates were incubated for 30 min and AP activity was determined from absorbance (OD405) using a SpectraMax® M5^e multilabel plate reader (Molecular Devices).
Aβ levels were quantified using a sandwich ELISA system based on antibody pairs 33.1.1/13.1.1 for Aβ40 and 2.1.3/4 G8 for Aβ42 as described previously. […]

Data set [4] relates to net Aß40 and Aß42 levels of CHO cells expressing APP-AP. As to the kind of experiment: Confirmation: co-transfection of BACE2 or BACE1 cDNA with APP-AP, Aß40 and Aß42 ELISA. It counts as cell-based. The settings on record: CHO cells co-transfected with APP-AP, 4 replicates, normalized to vector-only controls. As to the method: Figure 1 Overview and outcome of functional screening for novel Aß-lowering proteases. A, Cartoon illustrating the overall design of the screen. Briefly, an arrayed collection of 352 protease-encoding cDNAs was cotransfected into CHO cells together with an APP-AP fusion construct. Following a medium change and overnight incubation, Aß40 levels, AP activity, and cytotoxicity (via MTT assay) were analyized in the resulting conditioned media. B, Results of the screen, expressed as [Aß40]/AP ratios normalized to intraplate controls. Data are mean of 4 replicates. Note that the largest decrease in Aß levels by far was acheived by BACE2. C, Confirmation of the results of the screen. Following scale-up and sequence verification, cDNAs encoding BACE2 and its homolog, BACE1, were cotransfected together with APP-AP into CHO cells. […]
Aβ levels were quantified using a sandwich ELISA system based on antibody pairs 33.1.1/13.1.1 for Aβ40 and 2.1.3/4 G8 for Aβ42 as described previously. Conditioned media were supplemented with Complete^TM Protease Inhibitor Cocktail (Roche) just after collection and analyzed immediately. For experiments quantifying intracellular Aß, cells were plated in 96-well plates (2 x 10^4 cells per well) and transfected with BACE2-encoding cDNA or empty vector, washed, then incubated with 400 nM synthetic Aß for 6 h. […]
A general note: ELISA stands for enzyme-linked immunosorbent assay.

B1: BACE2: ß-site APP-cleaving enzyme-2, aspartyl protease; recombinant enzyme (R&D Systems) or transfected human cDNA (protein, UniProt Q9Y5Z0 63-518, looked up)
Beta-secretase 2: ALEPALASPAGAANFLAMVDNLQGDSGRGYYLEMLIGTPPQKLQILVDTGSSNFAVAGTPHSYIDTYFDTERSSTYRSKGFDVTVKYTQGSWTGFVGEDLVTIPKGFNTSFLVNIATIFESENFFLPGIKWNGILGLAYATLAKPSSSLETFFDSLVTQANIPNVFSMQMCGAGLPVAGSGTNGGSLVLGGIEPSLYKGDIWYTPIKEEWYYQIEILKLEIGGQSLNLDCREYNADKAIVDSGTTLLRLPQKVFDAVVEAVARASLIPEFSDGFWTGSQLACWTNSETPWSYFPKISIYLRDENSSRSFRITILPQLYIQPMMGAGLNYECYRFGISPSTNALVIGATVMEGFYVIFDRAQKRVGFAASPCAEIAGAAVSEISGPFSTEDVASNCVPAQSLSEPILWIVSYALMSVCGAILLVLIVLLLLPFRCQRRPRDPEVVNDESSLVRHRWK
B1: the “effect on aggregation of pre-formed Aß42 fibrils” value in data set [1] is listed as “No significant reduction in aggregation”. For the same molecule, the “pH of maximal Aß40 hydrolysis” value in data set [2] (Assay Buffer at pH 3.0, 3.5, 4.0, 4.5, 5.0, 5.5, 200 nM Aβ, stopped at 10 min, 4 replicates) is 3.5. For the same molecule, the “decrease in normalized Aß levels ([Aß40]/AP ratio)” value in data set [3] is listed as 97 ± 1.2%. The “effect of overexpression on net Aß40 and Aß42 levels” value in data set [4] was “decreased the levels of both Aβ40 and Aβ42”.

B2: BACE1: ß-site APP-cleaving enzyme-1, homolog of BACE2; recombinant enzyme or transfected cDNA (protein, UniProt P56817 46-501, looked up)
Beta-secretase 1: ETDEEPEEPGRRGSFVEMVDNLRGKSGQGYYVEMTVGSPPQTLNILVDTGSSNFAVGAAPHPFLHRYYQRQLSSTYRDLRKGVYVPYTQGKWEGELGTDLVSIPHGPNVTVRANIAAITESDKFFINGSNWEGILGLAYAEIARPDDSLEPFFDSLVKQTHVPNLFSLQLCGAGFPLNQSEVLASVGGSMIIGGIDHSLYTGSLWYTPIRREWYYEVIIVRVEINGQDLKMDCKEYNYDKSIVDSGTTNLRLPKKVFEAAVKSIKAASSTEKFPDGFWLGEQLVCWQAGTTPWNIFPVISLYLMGEVTNQSFRITILPQQYLRPVEDVATSQDDCYKFAISQSSTGTVMGAVIMEGFYVVFDRARKRIGFAVSACHVHDEFRTAAVEGPFVTLDMEDCGYNIPQTDESTLMTIAYVMAAICALFMLPLCLMVCQWRCLRCLRQQHDDFADDISLLK
With B2, the “efficiency of Aß degradation, fold lower than that of BACE2” value in data set [2] (BACE1 24 h vs BACE2 10 min for a similar extent of degradation, Assay Buffer pH 4.0) is ~ 150 fold. The “effect of overexpression on net Aß40 and Aß42 levels” value in data set [4] is reported as “no effect”.
